For the experiment, the target named is T1, human Retinoblastoma-1 (RB) pocket domain (human, UniProt P06400 373-771).
T1 chain: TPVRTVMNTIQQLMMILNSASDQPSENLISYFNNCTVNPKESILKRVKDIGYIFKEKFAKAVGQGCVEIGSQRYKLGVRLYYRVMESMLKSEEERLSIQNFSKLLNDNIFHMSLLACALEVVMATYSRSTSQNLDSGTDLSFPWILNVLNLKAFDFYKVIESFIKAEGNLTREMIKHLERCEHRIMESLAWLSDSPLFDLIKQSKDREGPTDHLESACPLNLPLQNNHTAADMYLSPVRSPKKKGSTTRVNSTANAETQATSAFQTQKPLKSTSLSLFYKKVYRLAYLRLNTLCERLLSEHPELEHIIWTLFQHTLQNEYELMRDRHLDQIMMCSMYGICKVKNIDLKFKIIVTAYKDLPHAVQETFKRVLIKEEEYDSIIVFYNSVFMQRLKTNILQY
The experiment in a line: SPR. Background: Surface plasmon resonance follows binding to a sensor surface in real time, without labels.

This is an account of results in article PMC7055300 (2020).

A word on the Kd: it is the concentration at which binding is half-saturated. A high value points to lower affinity. Turning to YIEEVFTPLVLKCKELK [LXCXE peptide derived from TpGcpE (TpMuguga_02g00667)], the Kd is 22.4 µM.

B1: full-length E2F1, purified, recombinant (natural protein)
chain: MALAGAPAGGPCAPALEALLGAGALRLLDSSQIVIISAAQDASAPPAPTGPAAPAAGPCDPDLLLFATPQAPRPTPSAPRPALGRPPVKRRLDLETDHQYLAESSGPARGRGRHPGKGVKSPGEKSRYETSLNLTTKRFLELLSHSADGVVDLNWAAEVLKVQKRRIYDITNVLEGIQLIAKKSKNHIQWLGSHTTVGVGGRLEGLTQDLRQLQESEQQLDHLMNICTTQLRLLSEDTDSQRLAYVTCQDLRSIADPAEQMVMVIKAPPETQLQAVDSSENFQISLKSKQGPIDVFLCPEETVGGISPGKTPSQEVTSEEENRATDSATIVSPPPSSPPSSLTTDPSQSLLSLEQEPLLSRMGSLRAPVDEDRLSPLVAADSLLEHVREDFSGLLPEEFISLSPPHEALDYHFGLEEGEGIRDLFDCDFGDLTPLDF
As for B1, the Kd was 0.0331 µM.
